Laboratory results published in US20120058906A1 (published 2012).
Blank lines part the entries; values can stand above or below the binder they belong to.

Key:
[1] = target: T1, rHuman Erythropoietin R/Fc Chimera, CF (R&D Systems Cat#963-ER) (human, UniProt P19235 25-250); test: ECL (MSD multi-spot), antigen spotted on plate; Fab 44.1 nM; blank spot 200
T1 construct: Bought reagent; also called EPO R/Fc; Epo R; Fc part of the bought chimera not given
T1 sequence: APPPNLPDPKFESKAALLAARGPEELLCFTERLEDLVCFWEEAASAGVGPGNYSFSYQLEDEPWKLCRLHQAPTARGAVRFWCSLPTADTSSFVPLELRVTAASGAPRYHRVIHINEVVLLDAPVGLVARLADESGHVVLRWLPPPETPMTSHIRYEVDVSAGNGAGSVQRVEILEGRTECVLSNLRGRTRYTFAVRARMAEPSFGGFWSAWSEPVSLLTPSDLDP

[2] = target: T2, Recombinant Human DLL4 (R&D Systems Cat#1506-D4/CF) (human, UniProt Q9NR61 27-524); test: as above
T2 construct: Bought reagent; also called delta-like protein 4

[3] = target: T3, rHuman ErbB2/Fc Chimera, CF (R&D Systems Cat#1129-ER) (human, UniProt P04626 23-652); test: as above
T3 construct: Bought reagent; also called HER2/neu; human epidermal growth factor 2 receptor; Fc part of the bought chimera not given

[4] = target: T4, rHuman EGF R/Fc Chimera, CF (R&D Systems Cat#344-ER) (human, UniProt P00533 25-645); test: as above
T4 construct: Bought reagent; also called epidermal growth factor receptor; Fc part of the bought chimera not given

[5] = target: T5, rHuman HGF R/c-MET/Fc Chimera, CF (R&D Systems Cat#358-MT/CF) (human, UniProt P08581 25-932); test: as above
T5 construct: Bought reagent; also called HGF R/Fc; hepatocyte growth factor receptor; Fc part of the bought chimera not given

[6] = target: T6, rHuman Notch-1/Fc Chimera, CF (R&D Systems Cat#3647-TK) (human, UniProt P46531 19-526); test: as above
T6 construct: Bought reagent; Fc part of the bought chimera not given

[7] = target: T7, rHuman CD44/Fc Chimera, CF (R&D Systems Cat#3660-CD) (human, UniProt P16070 21-220); test: as above
T7 construct: Bought reagent; Fc part of the bought chimera not given

[8] = target: T8, rHuman IGF-1 sR (IGF-1 sR), CF (R&D Systems Cat#391-GR) (human, UniProt P08069 31-932); test: as above
T8 construct: Bought soluble receptor; also called insulin-like growth factor-1 soluble receptor; IGF-R1

[9] = target: T9, rHuman P-Cadherin/Fc Chimera, CF (R&D Systems Cat#861-PC) (human, UniProt P22223 108-654); test: as above
T9 construct: Bought reagent; also called CDH3; Fc part of the bought chimera not given

[10] = target: T2, Recombinant Human DLL4 (R&D Systems …); test: ECL (MSD multi-spot), antigen spotted on plate; Fab 176.3 nM; blank spot 346
[11] = target: T10, rHuman IGF-1 sR (insulin-like growth factor-1 soluble receptor), CF (R&D Systems Cat#391-GR) (human, UniProt P08069 31-932); test: ECL (MSD multi-spot), antigen on plate, Fab 10 nM
T10 construct: Bought soluble receptor; also called IGF-R1

[12] = target: T11, rHuman P-Cadherin/Fc Chimera, CF (R&D Systems Cat#861-PC) (human, UniProt P22223 108-654); test: ECL (MSD multi-spot), antigen on plate, Fab 10 nM
T11 construct: Bought Fc chimera; also called CDH3; not shown: Fc of the bought chimera

[13] = target: T12, rHuman Erythropoietin R/Fc Chimera, CF (R&D Systems Cat#963-ER) (human, UniProt P19235 25-250); test: ECL (MSD multi-spot), antigen on plate, Fab 10 nM
T12 construct: Bought Fc chimera; also called EPO R/Fc; Epo R; not shown: Fc of the bought chimera
T12 sequence: T1 sequence

[14] = target: T13, Recombinant Human DLL4 (R&D Systems Cat#1506-D4/CF) (human, UniProt Q9NR61 27-524); test: ECL (MSD multi-spot), antigen on plate, Fab 10 nM
T13 construct: Bought recombinant protein; also called delta-like protein 4

[15] = target: T14, rHuman ErbB2/Fc Chimera, CF (R&D Systems Cat#1129-ER) (human, UniProt P04626 23-652); test: ECL (MSD multi-spot), antigen on plate, Fab 10 nM
T14 construct: Bought Fc chimera; also called HER2/neu; not shown: Fc of the bought chimera

[16] = target: T15, rHuman EGF R/Fc Chimera, CF (R&D Systems Cat#344-ER) (human, UniProt P00533 25-645); test: ECL (MSD multi-spot), antigen on plate, Fab 10 nM
T15 construct: Bought Fc chimera; also called ErbB-1; not shown: Fc of the bought chimera

[17] = target: T16, rHuman HGF R/c-MET/Fc Chimera, CF (R&D Systems Cat#358-MT/CF) (human, UniProt P08581 25-932); test: ECL (MSD multi-spot), antigen on plate, Fab 10 nM
T16 construct: Bought Fc chimera; also called HGF R/Fc; not shown: Fc of the bought chimera

[18] = target: T17, rHuman Notch-1/Fc Chimera, CF (R&D Systems Cat#3647-TK) (human, UniProt P46531 19-526); test: ECL (MSD multi-spot), antigen on plate, Fab 10 nM
T17 construct: Bought Fc chimera; not shown: Fc of the bought chimera
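Further: blank spot per well as comparator with Hit at signal to blank ratio of 4 or more.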

ECL signal [1]: 2390 | ECL signal [2]: 388 | ECL signal [3]: 347 | ECL signal [4]: 428 | ECL signal [5]: 336 | ECL signal [6]: 331 | ECL signal [7]: 302 | ECL signal [8]: 309 | ECL signal [9]: 343 | ECL signal [10]: 460
B1: Fab VH1-46_IGHD3-10*01_IGHJ4*01 & B3_IGKJ1*01 (Fab, V domains shown)
VH: QVQLVQSGAEVKKPGASVKVSCKASGYTFTSYYMHWVRQAPGQGLEWMGIINPSGGSTSYAQKFQGRVTMTRDTSTSTVYMELSSLRSEDTAVYYCAREYYYGSGSYYNDYFDYWGQGTLVTVSS
VL: not shown
notes: also called IGHV1-46*01

ECL signal [11]: 233 ECL signal | ECL signal [12]: 283 ECL signal | ECL signal [13]: 420 ECL signal | ECL signal [14]: 33400 ECL signal | ECL signal [15]: 274 ECL signal | ECL signal [16]: 245 ECL signal | ECL signal [17]: 239 ECL signal | ECL signal [18]: 253 ECL signal
B2: Fab VH1-46_IGHD6-6*01_IGHJ1*01_S102A_S103P_S104F & L6_IGKJ1*01_S30N (Fab, V domains shown)
VH: QVQLVQSGAEVKKPGASVKVSCKASGYTFTSYYMHWVRQAPGQGLEWMGIINPSGGSTSYAQKFQGRVTMTRDTSTSTVYMELSSLRSEDTAVYYCAREEYAPFSAEYFQHWGQGTLVTVSS
VL: EIVLTQSPATLSLSPGERATLSCRASQSVNSYLAWYQQKPGQAPRLLIYDASNRATGIPARFSGSGSGTDFTLTISSLEPEDFAVYYCQQRSNWPPWTFGQGTKVEIKR
notes: Fab
